Laboratory results published in US20070196354A1, “Method of treating diabetes by inhibiting degradation of at least one of crebl1, atf6, and hnf-4 alpha by htra” (priority 2003, published 2007).

Molecular target: T1, CREBL1 (Homo sapiens, UniProt Q99941)
T1 construct: expressed in transfected cells; host or cells: HEK293T
T1 sequence (Q99941 1-703): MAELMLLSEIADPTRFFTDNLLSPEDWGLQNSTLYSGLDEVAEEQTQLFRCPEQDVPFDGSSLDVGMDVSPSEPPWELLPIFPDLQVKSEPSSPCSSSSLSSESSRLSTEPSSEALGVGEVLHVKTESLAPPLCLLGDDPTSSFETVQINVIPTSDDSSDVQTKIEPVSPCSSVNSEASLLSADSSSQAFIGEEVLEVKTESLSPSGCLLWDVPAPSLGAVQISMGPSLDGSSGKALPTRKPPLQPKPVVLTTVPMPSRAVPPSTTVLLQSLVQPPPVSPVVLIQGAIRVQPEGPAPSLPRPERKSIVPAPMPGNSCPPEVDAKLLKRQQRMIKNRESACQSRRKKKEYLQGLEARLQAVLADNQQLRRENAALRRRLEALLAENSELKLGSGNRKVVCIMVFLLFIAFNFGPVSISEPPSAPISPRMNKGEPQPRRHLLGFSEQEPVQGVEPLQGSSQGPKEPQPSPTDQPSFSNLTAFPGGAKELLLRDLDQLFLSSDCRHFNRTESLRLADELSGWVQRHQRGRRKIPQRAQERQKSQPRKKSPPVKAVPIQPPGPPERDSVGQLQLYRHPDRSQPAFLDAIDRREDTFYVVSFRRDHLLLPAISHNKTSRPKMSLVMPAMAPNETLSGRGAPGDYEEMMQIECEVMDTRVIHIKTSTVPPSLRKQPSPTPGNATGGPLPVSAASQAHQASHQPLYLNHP
Assay: In vitro protease assay, CREBL1 captured on resin
Assay type: biochemical
Settings: 50 μg/ml, 37° C., overnight (O/N), anti-c-Myc detection
Procedure: CREBL1 and ATF6 which were captured on the resin were used in the experiments in order to eliminate the influence of proteinaceous impurities contained in the soluble fractions prepared from the cells obtained by transfecting an expression plasmid of CREBL1 or ATF6. Three hundreds μl of each soluble fraction of CREBL1 and ATF6 was dispensed to six tubes (Nos. 1 to 6), followed by adding 20 μl of protein G sepharose 4 FF (Amersham) of 50% slurry that had been subjected to blocking with BSA, to each of tubes, subjected to overturned mixing at 4° C. for 1 hour, and then subjected to centrifugation (10,000 rpm, 10 sec, 4° C.) to collect the supernatant, and thus the pre-treatment (pre-clean) was performed. The resultant supernatant was mixed with 1.7 μl (2 μg) of anti-Myc antibody (Invitrogen), subjected to overturned mixing at 4° C. for 3 hours, followed by adding 20 μl of protein G sepharose 4 FF that had been subjected to blocking with BSA, and then subjected to overturned mixing at 4° C. overnight. Thus, CREBL1 and ATF6 were respectively captured on protein G sepharose 4 FF. […]

B1: mature HtrA2: SEQ ID NO: 4; mature protein generated from HtrA2 precursor by cleavage of N-terminal 133 residues, has protease activity (protein, listed as Homo sapiens)
chain: MAVPSPPPASPRSQYNFIADVVEKTAPAVVYIEILDRHPFLGREVPISNGSGFVVAADGLIVTNAHVVADRRRVRVRLLSGDTYEAVVTAVDPVADIATLRIQTKEPLPTLPLGRSADVRQGEFVVAMGSPFALQNTITSGIVSSAQRPARDLGLPQTNVEYIQTDAAIDFGNSGGPLVNLDGEVIGVNTMKVTAGISFAIPSDRLREFLHRGEKKNSSSGISGSQRRYIGVMMLTLSPSILAELQLREPSFPDVQHGVLIHKVILGSPAHRAGLRPGDVILAIGEQMVQNAEDVYEAVRTQSQLAVQIRRGRETLTLYVTPEVTE
modifications: mature HtrA2
- degradation of CREBL1 (band by western blotting): the band of CREBL1 was reduced significantly
